From patent US20170296650A1 (Novartis, published 2017)

Columns and labels:
[1] = biological target: T1, hCMV glycoprotein B (gB; HEK293T transfectant) (hCMV, UniProt P06473 32-906); assay: cell-based or functional assay
[2] = biological target: hCMV gB E361K + D362N (virus selected with 7H3 in fibroblasts) (hCMV); assay: cell-based or functional assay
[3] = biological target: hCMV gB E381 deletion (virus selected with 7H3 in epithelial cells) (hCMV); assay: cell-based or functional assay
[4] = biological target: T1, hCMV glycoprotein B (gB; HEK293T …); assay: cell-based or functional assay; remark: listed apart in the source
[5] = biological target: T1, hCMV glycoprotein B (gB; HEK293T …); assay: cell-based or functional assay; remark: listed apart in the source
[6] = biological target: T1, hCMV glycoprotein B (gB; HEK293T …); assay: cell-based or functional assay; remark: listed apart in the source
[7] = biological target: T1, hCMV glycoprotein B (gB; HEK293T …); assay: cell-based or functional assay; remark: listed apart in the source
[8] = biological target: T1, hCMV glycoprotein B (gB; HEK293T …); assay: cell-based or functional assay; remark: listed apart in the source
[9] = biological target: T1, hCMV glycoprotein B (gB; HEK293T …); assay: cell competition; competitor 4H9-biotin
[10] = biological target: T1, hCMV glycoprotein B (gB; HEK293T …); assay: cell competition; competitor 5F1-biotin
[11] = biological target: T1, hCMV glycoprotein B (gB; HEK293T …); assay: cell competition; competitor 6B4-biotin
[12] = biological target: T1, hCMV glycoprotein B (gB; HEK293T …); assay: cell competition; competitor 7H3-biotin
[13] = biological target: T1, hCMV glycoprotein B (gB; HEK293T …); assay: cell competition; competitor 10C6-biotin
[14] = biological target: T1, hCMV glycoprotein B (gB; HEK293T …); assay: cell competition; competitor 2B11-biotin
[15] = biological target: T2, soluble gB ectodomain expressed in a mammalian cell line (hCMV, UniProt P06473 32-750); assay: ELISA, soluble gB ectodomain; ELISA on soluble gB ectodomain (4I22 was measured by Biacore on the 5-member complex)
T2 construct: extracellular domain

[16] = biological target: T3, hCMV gH + gL + UL128 + UL130 (HEK293T co-transfectant) (hCMV, UniProt P12824 24-743; P16832 31-278; P16837 28-171; P16772 1-214); assay: cell-based or functional assay
[17] = biological target: T3, hCMV gH + gL + UL128 + UL130 (HEK293T …); assay: cell-based or functional assay; remark: listed apart in the source
[18] = biological target: T4, hCMV gH + gL + UL128 + UL130 + UL131A (5-member complex; HEK293T co-transfectant) (hCMV, UniProt P12824 24-743; P16832 31-278; P16837 1-171; P16772 1-214); assay: cell competition; competitor 2F4-biotin
T4 construct: whole, on cells; in the functional rows it stands for the complex on virions or transduced cells of the strain or isolate named in the readout; also called gH/gL/UL128-131A complex; pentameric complex

[19] = biological target: T4, hCMV gH + gL + UL128 + UL130 + UL131A …; assay: cell competition; competitor 5A2-biotin
[20] = biological target: T4, hCMV gH + gL + UL128 + UL130 + UL131A …; assay: cell competition; competitor 6G4-biotin
[21] = biological target: T4, hCMV gH + gL + UL128 + UL130 + UL131A …; assay: cell competition; competitor 15D8-biotin
[22] = biological target: T4, hCMV gH + gL + UL128 + UL130 + UL131A …; assay: cell competition; competitor 1F11-biotin
[23] = biological target: T4, hCMV gH + gL + UL128 + UL130 + UL131A …; assay: cell competition; competitor 4I22-biotin
[24] = biological target: T4, hCMV gH + gL + UL128 + UL130 + UL131A …; assay: cell competition; competitor 4N10-biotin
[25] = biological target: T4, hCMV gH + gL + UL128 + UL130 + UL131A …; assay: cell competition; competitor 2C12-biotin
[26] = biological target: T4, hCMV gH + gL + UL128 + UL130 + UL131A …; assay: cell competition; competitor 8I21-biotin
[27] = biological target: T5, hCMV gM + gN (HEK293T co-transfectant) (hCMV, UniProt P16733 1-372; P16795 22-138); assay: cell-based or functional assay
T5 sequence 1: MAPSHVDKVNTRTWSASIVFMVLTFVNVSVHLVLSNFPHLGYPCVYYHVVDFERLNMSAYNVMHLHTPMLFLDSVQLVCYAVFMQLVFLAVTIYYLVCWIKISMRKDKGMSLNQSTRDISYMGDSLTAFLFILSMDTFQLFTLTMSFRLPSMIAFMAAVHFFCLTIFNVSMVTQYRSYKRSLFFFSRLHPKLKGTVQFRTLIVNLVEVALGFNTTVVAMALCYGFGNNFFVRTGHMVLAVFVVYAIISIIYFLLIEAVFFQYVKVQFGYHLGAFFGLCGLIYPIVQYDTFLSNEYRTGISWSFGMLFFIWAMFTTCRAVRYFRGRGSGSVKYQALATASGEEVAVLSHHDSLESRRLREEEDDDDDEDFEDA
T5 sequence 2: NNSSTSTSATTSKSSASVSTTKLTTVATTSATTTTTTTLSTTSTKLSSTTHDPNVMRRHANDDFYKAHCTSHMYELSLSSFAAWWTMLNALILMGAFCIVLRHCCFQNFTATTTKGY

[28] = biological target: T5, hCMV gM + gN (HEK293T co-transfectant); assay: cell-based or functional assay; remark: listed apart in the source

T1 sequence (P06473 32-906 limits assumed): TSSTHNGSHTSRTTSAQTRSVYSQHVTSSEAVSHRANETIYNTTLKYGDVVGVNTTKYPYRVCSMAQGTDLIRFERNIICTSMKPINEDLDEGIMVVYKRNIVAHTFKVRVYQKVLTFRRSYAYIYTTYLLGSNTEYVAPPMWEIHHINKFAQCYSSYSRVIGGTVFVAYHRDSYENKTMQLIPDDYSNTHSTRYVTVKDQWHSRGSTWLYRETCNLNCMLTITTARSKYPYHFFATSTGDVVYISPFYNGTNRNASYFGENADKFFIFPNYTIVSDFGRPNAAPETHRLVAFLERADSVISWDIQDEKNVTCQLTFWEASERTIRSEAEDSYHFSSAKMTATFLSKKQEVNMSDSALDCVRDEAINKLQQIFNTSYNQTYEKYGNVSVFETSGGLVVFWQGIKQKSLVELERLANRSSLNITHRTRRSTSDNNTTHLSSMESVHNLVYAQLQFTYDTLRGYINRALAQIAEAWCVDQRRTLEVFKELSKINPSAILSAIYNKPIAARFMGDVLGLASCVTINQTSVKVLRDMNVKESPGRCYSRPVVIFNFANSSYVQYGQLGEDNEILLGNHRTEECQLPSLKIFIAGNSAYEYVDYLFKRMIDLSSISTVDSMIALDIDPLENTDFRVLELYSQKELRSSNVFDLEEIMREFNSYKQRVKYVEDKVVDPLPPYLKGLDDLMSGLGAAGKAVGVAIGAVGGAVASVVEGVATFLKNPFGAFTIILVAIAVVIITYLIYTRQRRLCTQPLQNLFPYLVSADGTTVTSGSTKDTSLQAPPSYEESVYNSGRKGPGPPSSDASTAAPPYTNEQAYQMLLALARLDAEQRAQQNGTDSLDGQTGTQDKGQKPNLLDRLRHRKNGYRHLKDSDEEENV
T2 sequence (P06473 32-750 limits assumed): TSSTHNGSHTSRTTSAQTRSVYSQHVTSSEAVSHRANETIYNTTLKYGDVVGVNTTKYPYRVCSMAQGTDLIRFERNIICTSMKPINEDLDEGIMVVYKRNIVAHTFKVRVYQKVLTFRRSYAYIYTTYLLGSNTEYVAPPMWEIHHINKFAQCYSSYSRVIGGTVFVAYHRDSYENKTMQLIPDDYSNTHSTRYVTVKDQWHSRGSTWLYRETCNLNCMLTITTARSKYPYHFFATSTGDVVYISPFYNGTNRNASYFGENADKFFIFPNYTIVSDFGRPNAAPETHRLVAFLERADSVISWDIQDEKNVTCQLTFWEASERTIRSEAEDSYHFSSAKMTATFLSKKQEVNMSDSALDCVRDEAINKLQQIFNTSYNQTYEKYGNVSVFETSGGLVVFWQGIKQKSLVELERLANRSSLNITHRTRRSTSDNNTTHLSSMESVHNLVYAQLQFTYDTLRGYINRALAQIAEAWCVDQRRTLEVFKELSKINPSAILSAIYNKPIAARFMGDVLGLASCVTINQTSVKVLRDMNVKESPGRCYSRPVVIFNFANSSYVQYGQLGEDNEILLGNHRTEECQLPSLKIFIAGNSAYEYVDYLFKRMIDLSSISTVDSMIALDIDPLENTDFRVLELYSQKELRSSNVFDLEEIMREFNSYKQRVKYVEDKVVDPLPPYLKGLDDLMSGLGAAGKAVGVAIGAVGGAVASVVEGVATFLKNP

B1: 7H3 (antibody, V domains shown)
VH: QVQLVQSGAEVKNPGASVKVSCKASGYTFTDYYIHWVRQAPGQGLEWMGWFNPNSGGTNFVQNFQGRVTMTRDTSISTAYMELSRLRSDDTAMYYCAKDSAKTASAYYGLNFFYYGMDVWGQGTTVTVSS
VL: QSVLSQPPSASGTPGQRVTISCSGSSSNIGKNYVYWYQQVPGTAPKLLMFKNNQRPSGVPDRFSGSKSGTSASLAISGLRSEDEADYYCSAWDGSLSRPLFGGGTKVTVL
notes: fully human IgG1 with unaltered Fc; also called 7H3-biotin; LJP538
EC50 inhibition of cell-cell fusion [1]: 4.77 µg/mL | fold increase in neutralization EC50 of escape virus [2]: > 41 fold | fold decrease in susceptibility of escape virus [3]: 22 fold | 50% neutralization VR1814, ARPE [4]: > 2 µg/mL | 50% neutralization VR1814, MRC-9 [4]: ≤ 2 µg/mL | 90% neutralization VR1814, ARPE [5]: 0.6 µg/mL | 90% neutralization VR1814, MRC-9 [5]: 3 µg/mL | 50% neutralization VR1814, BM-MSC [6]: 2 µg/mL | 50% neutralization VR1814, Mo-DC [6]: 0.06 µg/mL | neutralization of ARPE infection, isolate TM-20749 [7]: 4.36 µg/mL | neutralization of ARPE infection, isolate TM-31354 [7]: 1.42 µg/mL | neutralization of ARPE infection, isolate TM-E5271 [7]: 0.17 µg/mL | neutralization of ARPE infection, isolate TM-E9361 [7]: 0.33 µg/mL | neutralization of ARPE infection, isolate TM-E14953 [7]: 1.09 µg/mL | neutralization of ARPE infection, isolate TM-E19664 [7]: 0.26 µg/mL | neutralization of ARPE infection, isolate TM-E20744 [7]: 1.37 µg/mL | neutralization of ARPE infection, isolate TM-E28175 [7]: 0.24 µg/mL | neutralization of ARPE infection, isolate TM-E28257 [7]: 1.16 µg/mL | EC90 neutralization HUVEC, isolate TM-20749 [8]: 1.18 µg/mL | EC90 neutralization HUVEC, isolate TM-31354 [8]: 2.2 µg/mL | EC90 neutralization HUVEC, isolate TM-E5271 [8]: 0.19 µg/mL | EC90 neutralization HUVEC, isolate TM-E9361 [8]: 0.29 µg/mL | EC90 neutralization HUVEC, isolate TM-E14953 [8]: 0.12 µg/mL | EC90 neutralization HUVEC, isolate TM-E19664 [8]: 0.31 µg/mL | EC90 neutralization HUVEC, isolate TM-E20744 [8]: 0.39 µg/mL | EC90 neutralization HUVEC, isolate TM-E28175 [8]: 0.28 µg/mL | EC90 neutralization HUVEC, isolate TM-E28257 [8]: 1.02 µg/mL | Inhibition of binding (%) [9]: 0% | Inhibition of binding (%) [10]: 0% | Inhibition of binding (%) [11]: 0% | Inhibition of binding (%) [12]: 100% | Inhibition of binding (%) [13]: 0% | Inhibition of binding (%) [14]: 0% | Kd [15]: 0.29 nM

B2: 8I21 (antibody, V domains shown)
VH: LVELVESGGGVVQPGRSLRLSCAASGFTFSSDGMHWVRQSPGRGLEWVAFISSDGSTPYYADSVKGRFTISRDNSKNTLYLQMNSLRAEDTAMYFCAKDWALFRWLRTFDHWGQGTLVTVSS
VL: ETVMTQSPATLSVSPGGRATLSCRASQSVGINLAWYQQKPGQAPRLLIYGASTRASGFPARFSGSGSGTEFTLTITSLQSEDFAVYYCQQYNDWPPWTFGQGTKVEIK
notes: human IgG; also called 8I21-biotin
50% neutralization VR1814, ARPE [16]: < 0.01 µg/mL | 50% neutralization VR1814, MRC-9 [16]: > 2 µg/mL | 90% neutralization VR1814, ARPE [17]: 0.03 µg/mL | 90% neutralization VR1814, MRC-9 [17]: > 10 µg/mL | Inhibition of binding (%) [18]: 0% | Inhibition of binding (%) [19]: 95% | Inhibition of binding (%) [20]: 0% | Inhibition of binding (%) [21]: 0% | Inhibition of binding (%) [22]: 0% | Inhibition of binding (%) [23]: 0% | Inhibition of binding (%) [24]: 90% | Inhibition of binding (%) [25]: 0% | Inhibition of binding (%) [26]: 100%

B3: 6L3 (antibody, V domains shown)
VH: EVRLEESGGGLVQPGGSLRLSCAASGFTVSTTYMAWVRQAPGKGLEWVSLIHTGGIFGVGGTSYADSVKGRFTISRDTSKNTVSLQMSSLRVEDTAIYFCAREHRGTIDAFDAWGQGTVVIVSS
VL: DIHMTQSPSSLSASVGDRVTITCRASQNIRNYLNWYQHKPGKAPKLLIYTTSRLQSGVPSRFSGSGSGTDFTLTVNSLQPEDFASYYCQQSYDGWTFGQGTKVEMK
50% neutralization VR1814, ARPE [27]: ≤ 2 µg/mL | 90% neutralization VR1814, ARPE [28]: 10 µg/mL | 90% neutralization VR1814, MRC-9 [28]: 30 µg/mL
